{"source": "IntAct's records for PubMed 31515488", "parents": {"B1": {"name": "Syntenin-2 (Homo sapiens), Q9H190 (parent)", "chain": "MSSLYPSLEDLKVDQAIQAQVRASPKMPALPVQATAISPPPVLYPNLAELENYMGLSLSSQEVQESLLQIPEGDSTAVSGPGPGQMVAPVTGYSLGVRRAEIKPGVREIHLCKDERGKTGLRLRKVDQGLFVQLVQANTPASLVGLRFGDQLLQIDGRDCAGWSSHKAHQVVKKASGDKIVVVVRDRPFQRTVTMHKDSMGHVGFVIKKGKIVSLVKGSSAARNGLLTNHYVCEVDGQNVIGLKDKKIMEILATAGNVVTLTIIPSVIYEHMVKKLPPVLLHHTMDHSIPDA", "partner": "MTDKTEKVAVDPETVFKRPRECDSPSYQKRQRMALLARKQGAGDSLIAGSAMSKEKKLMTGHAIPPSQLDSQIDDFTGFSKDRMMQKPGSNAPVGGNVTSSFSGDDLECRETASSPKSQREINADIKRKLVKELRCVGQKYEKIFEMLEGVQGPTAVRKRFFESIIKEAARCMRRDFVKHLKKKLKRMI"}, "B2": {"name": "Coiled-coil domain-containing protein 68 (Homo sapiens), Q9H2F9 (parent)", "chain": "MTTVTVTTEIPPRDKMEDNSALYESTSAHIIEETEYVKKIRTTLQKIRTQMFKDEIRHDSTNHKLDAKHCGNLQQGSDSEMDPSCCSLDLLMKKIKGKDLQLLEMNKENEVLKIKLQASREAGAAALRNVAQRLFENYQTQSEEVRKKQEDSKQLLQVNKLEKEQKLKQHVENLNQVAEKLEEKHSQITELENLVQRMEKEKRTLLERKLSLENKLLQLKSSATYGKSCQDLQREISILQEQISHLQFVIHSQHQNLRSVIQEMEGLKNNLKEQDKRIENLREKVNILEAQNKELKTQVALSSETPRTKVSKAVSTSELKTEGVSPYLMLIRLRK"}, "B3": {"name": "Syntenin-2 (Homo sapiens), Q9H190 (parent)", "chain": "B1 chain", "partner": "B1 partner with R83G"}, "B4": {"name": "F-box only protein 3 (Homo sapiens), Q9UK99 (parent)", "chain": "MAAMETETAPLTLESLPTDPLLLILSFLDYRDLINCCYVSRRLSQLSSHDPLWRRHCKKYWLISEEEKTQKNQCWKSLFIDTYSDVGRYIDHYAAIKKAWDDLKKYLEPRCPRMVLSLKEGAREEDLDAVEAQIGCKLPDDYRCSYRIHNGQKLVVPGLLGSMALSNHYRSEDLLDVDTAAGGFQQRQGLKYCLPLTFCIHTGLSQYIAVEAAEGRNKNEVFYQCPDQMARNPAAIDMFIIGATFTDWFTSYVKNVVSGGFPIIRDQIFRYVHDPECVATTGDITVSVSTSFLPELSSVHPPHYFFTYRIRIEMSKDALPEKACQLDSRYWRITNAKGDVEEVQGPGVVGEFPIISPGRVYEYTSCTTFSTTSGYMEGYYTFHFLYFKDKIFNVAIPRFHMACPTFRVSIARLEMGPDEYEEMEEEEEEEEEEDEDDDSADMDESDEDDEEERRRRVFDVPIRRRRCSRLF"}, "B5": {"name": "Chondroitin sulfate N-acetylgalactosaminyltransferase 2 (Homo sapiens), Q8N6G5 (parent)", "chain": "MPRRGLILHTRTHWLLLGLALLCSLVLFMYLLECAPQTDGNASLPGVVGENYGKEYYQALLQEQEEHYQTRATSLKRQIAQLKQELQEMSEKMRSLQERRNVGANGIGYQSNKEQAPSDLLEFLHSQIDKAEVSIGAKLPSEYGVIPFESFTLMKVFQLEMGLTRHPEEKPVRKDKRDELVEVIEAGLEVINNPDEDDEQEDEEGPLGEKLIFNENDFVEGYYRTERDKGTQYELFFKKADLTEYRHVTLFRPFGPLMKVKSEMIDITRSIINIIVPLAERTEAFVQFMQNFRDVCIHQDKKIHLTVVYFGKEGLSKVKSILESVTSESNFHNYTLVSLNEEFNRGRGLNVGARAWDKGEVLMFFCDVDIYFSAEFLNSCRLNAEPGKKVFYPVVFSLYNPAIVYANQEVPPPVEQQLVHKKDSGFWRDFGFGMTCQYRSDFLTIGGFDMEVKGWGGEDVHLYRKYLHGDLIVIRTPVPGLFHLWHEKRCADELTPEQYRMCIQSKAMNEASHSHLGMLVFREEIETHLHKQAYRTNSEAVG"}, "B6": {"name": "Microtubule-associated tumor suppressor candidate 2 (Homo sapiens), Q5JR59-3 (parent)", "chain": "MGHCCCKPYNCLQCLDKTNESALVKEKELSIELANIRDEVAFHTAKCEKLQKEKEELERRFEDEVKRLGWQQQAELQELEERLQLQFEAEMARLQEEHGDQLLSIRCQHQEQVEDLTASHDAALLEMENNHTVAITILQDDHDHKVQELMSTHELEKKELEENFEKLRLSLQDQVDTLTFQSQSLRDRARRFEEALRKNTEEQLEIALAPYQHLEEDMKSLKQVLEMKNQQIHEQEKKILELEKLAEKNIILEEKIQVLQQQNEDLKARIDQNTVVTRQLSEENANLQEYVEKETQEKKRLSRTNEELLWKLQTGDPTSPIKLSPTSPVYRGSSSGPSSPARVSTTPR", "partner": "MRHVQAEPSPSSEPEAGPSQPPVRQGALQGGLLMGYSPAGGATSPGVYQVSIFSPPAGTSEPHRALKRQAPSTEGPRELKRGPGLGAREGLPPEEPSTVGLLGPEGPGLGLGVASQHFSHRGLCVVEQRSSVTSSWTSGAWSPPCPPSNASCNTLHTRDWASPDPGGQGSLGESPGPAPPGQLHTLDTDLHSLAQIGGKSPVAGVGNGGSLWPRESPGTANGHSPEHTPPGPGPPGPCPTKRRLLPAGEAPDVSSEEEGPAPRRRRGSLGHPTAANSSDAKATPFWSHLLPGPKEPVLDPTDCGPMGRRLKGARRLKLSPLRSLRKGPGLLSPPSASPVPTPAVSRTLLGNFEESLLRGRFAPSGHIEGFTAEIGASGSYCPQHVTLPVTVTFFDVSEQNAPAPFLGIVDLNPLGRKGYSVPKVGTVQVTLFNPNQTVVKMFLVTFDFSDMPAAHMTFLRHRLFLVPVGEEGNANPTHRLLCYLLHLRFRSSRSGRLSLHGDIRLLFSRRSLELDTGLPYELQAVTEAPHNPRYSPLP"}}, "note": "Changes are numbered by the printed parent chain.", "data": [{"variants_of": "B1", "conditions": "with ct453_human CT45A3, Q8NHU0", "values": [{"variant": "MSSLYPSLEDLKVDQAIQAQVRASPKMPALPVQATAISPPPVLYPNLAELENYMGLSLSSQEVQESLLQIPEGDSTAVSGPGPGQMVAPVTGYSLGVRRAEIKPGVREIHLCKDERGKTGLRLRKVDQGLFVQLVQANTPASLVGLRFGDQLLQIDGRDCAGWSSHKAHQVVKKASGDKIVVVVRDRPFQRTVTMHKDSMGHVGFVIKKGKIVSLVKGSSAACNGLLTNHYVCEVDGQNVIGLKDKKIMEILATAGNVVTLTIIPSVIYEHMVKKLPPVLLHHTMDHSIPDA", "note": "[R223C]", "effect of a mutation on the interaction": "with no effect"}]}, {"variants_of": "B2", "conditions": "with tfp11_human TFIP11, Q9UBB9", "values": [{"variant": "MTTVTVTTEIPPRDKMEDNSALYESTSAHIIEETEYVKKIRTTLQKIRTQMFKDEIRHDSTNHKLDAKHCGNLQQGSDSEMDPSCCSLDLLMKKIKGKDVQLLEMNKENEVLKIKLQASREAGAAALRNVAQRLFENYQTQSEEVRKKQEDSKQLLQVNKLEKEQKLKQHVENLNQVAEKLEEKHSQITELENLVQRMEKEKRTLLERKLSLENKLLQLKSSATYGKSCQDLQREISILQEQISHLQFVIHSQHQNLRSVIQEMEGLKNNLKEQDKRIENLREKVNILEAQNKELKTQVALSSETPRTKVSKAVSTSELKTEGVSPYLMLIRLRK", "note": "[L100V]", "effect of a mutation on the interaction": "with no effect"}, {"variant": "MTTVTVTTEIPPRDKMEDNSALYESTSAHIIEETEYVKKIRTTLQKIRTQMFKDEIRHDSTNHKLDAKHCGNLQQGSDSEMDPSCCSLDLLMKKIKGKDLQLLEMNKENEVLKIKLQASREAGAAALRNVAQRLFENYQTQSEEVRKKQEDSKQLLQVNKLEKEQKLKQHVENLNQVAEKLEEKHSQITELENLVQRMEKEKRTLLERKLSLENKLLQLKSSATYGKSCQDLQREISILQEQISHLQFAIHSQHQNLRSVIQEMEGLKNNLKEQDKRIENLREKVNILEAQNKELKTQVALSSETPRTKVSKAVSTSELKTEGVSPYLMLIRLRK", "note": "[V249A]", "effect of a mutation on the interaction": "with no effect"}]}, {"variants_of": "B3", "conditions": "with ct457_human CT45A7, P0DMV0", "values": [{"variant": "MSSLYPSLEDLKVDQAIQAQVRASPKMPALPVQATAISPPPVLYPNLAELENYMGLSLSSQEVQESLLQIPEGDSTAVSGPGPGQMVAPVTGYSLGVRRAEIKPGVREIHLCKDERGKTGLRLRKVDQGLFVQLVQANTPASLVGLRFGDQLLQIDGRDCAGWSSHKAHQVVKKASGDKIVMVVRDRPFQRTVTMHKDSMGHVGFVIKKGKIVSLVKGSSAARNGLLTNHYVCEVDGQNVIGLKDKKIMEILATAGNVVTLTIIPSVIYEHMVKKLPPVLLHHTMDHSIPDA", "note": "[V182M]", "effect of a mutation on the interaction": "disrupting interaction strength"}, {"variant": "MSSLYPSLEDLKVDQAIQAQVRASPKMPALPVQATAISPPPVLYPNLAELENYMGLSLSSQEVQESLLQIPEGDSTAVSGPGPGQMVAPVTGYSLGVRRAEIKPGVREIHLCKDERGKTGLRLRKVDQGLFVQLVQANTPASLVGLRFGDQLLQIDGRDCAGWSSHKAHQVVKKASGDKIVVVVRDRPFQRTVTMHKDSMGHVGFVIKKGKIVSLVKGSSAARNRLLTNHYVCEVDGQNVIGLKDKKIMEILATAGNVVTLTIIPSVIYEHMVKKLPPVLLHHTMDHSIPDA", "note": "[G225R]", "effect of a mutation on the interaction": "disrupting interaction strength"}, {"variant": "MSSLYPSLEDLKVDQAIQAQVRASPKMPALPVQATAISPPPVLYPNLAELENYMGLSLSSQEVQESLLQIPEGDSTAVSGPGPGQMVAPVTGYSLGVRRAEIKPGVREIHLCKDERGKTGLRLRKVDQGLFVQLVQANTPASLVGLRFGDQLLQIDGRDCAGWSSHKAHQVVKKASGDKIVVVVRDRPFQRTVTMHKDSMGHVGFVIKKGKIVSLVKGSSAARNGLLTNHYVCEVDGQNVIRLKDKKIMEILATAGNVVTLTIIPSVIYEHMVKKLPPVLLHHTMDHSIPDA", "note": "[G242R]", "effect of a mutation on the interaction": "disrupting interaction strength"}]}, {"variants_of": "B4", "conditions": "with skp1_human SKP1, P63208", "values": [{"variant": "MAAMETETASLTLESLPTDPLLLILSFLDYRDLINCCYVSRRLSQLSSHDPLWRRHCKKYWLISEEEKTQKNQCWKSLFIDTYSDVGRYIDHYAAIKKAWDDLKKYLEPRCPRMVLSLKEGAREEDLDAVEAQIGCKLPDDYRCSYRIHNGQKLVVPGLLGSMALSNHYRSEDLLDVDTAAGGFQQRQGLKYCLPLTFCIHTGLSQYIAVEAAEGRNKNEVFYQCPDQMARNPAAIDMFIIGATFTDWFTSYVKNVVSGGFPIIRDQIFRYVHDPECVATTGDITVSVSTSFLPELSSVHPPHYFFTYRIRIEMSKDALPEKACQLDSRYWRITNAKGDVEEVQGPGVVGEFPIISPGRVYEYTSCTTFSTTSGYMEGYYTFHFLYFKDKIFNVAIPRFHMACPTFRVSIARLEMGPDEYEEMEEEEEEEEEEDEDDDSADMDESDEDDEEERRRRVFDVPIRRRRCSRLF", "note": "[P10S]", "effect of a mutation on the interaction": "with no effect"}]}, {"variants_of": "B5", "conditions": "with BCL2L13, Q9BXK5", "values": [{"variant": "MPRRGLILHTRTHWLLLGLALLCSLVLFMYLLECAPQTDGNASLPGVVGENYGKEYYQALLQEQEEHYQTRATSLKRQIAQLKQELQEMSEKMRSLQERRNVGANGIGYQSNKEQAPSDLLEFLHSQIDKAEVSIGAKLPSEYGVIPFESFTLMKVFQLEMGLTRHPEEKPVRKDKRDELVEVIEAGLEVINNPDEDDEQEDEEGPLGEKLIFNENDFVEGYYRTERDKGTQYELFFKKADLTEYRHVTLFRPFGPLMKVKSEMIDITRSIINIIVPLAERTEAFVQFMQNFRDVCIHQDKKIHLTVVYFGKEGLSKVKSILESVTSESNFHNYTLVSLNEEFNRGRGLNVGARAWDKGEVLMFFCDVDIYFSAEFLNSCRLNAEPGKKVFYPVVFSLYNPAIVYANQEVPPPVEQQLVHKKDSGFWRDFGFGMTCQYRSDFLTIGGFDMEVKGWGGEDVHLYRKYLHGDLIVIRTPVSGLFHLWHEKRCADELTPEQYRMCIQSKAMNEASHSHLGMLVFREEIETHLHKQAYRTNSEAVG", "note": "[P479S]", "effect of a mutation on the interaction": "with no effect"}]}, {"variants_of": "B6", "conditions": "with atosb_human ATOSB", "values": [{"variant": "MGHCCCKPYNCLQCLDKTNESALVKEKELSIELANIRDEVAFHTAKCEKLQKEKEELERRFEDEVKRLGWQQQAELQELEERLQLQFEVEMARLQEEHGDQLLSIRCQHQEQVEDLTASHDAALLEMENNHTVAITILQDDHDHKVQELMSTHELEKKELEENFEKLRLSLQDQVDTLTFQSQSLRDRARRFEEALRKNTEEQLEIALAPYQHLEEDMKSLKQVLEMKNQQIHEQEKKILELEKLAEKNIILEEKIQVLQQQNEDLKARIDQNTVVTRQLSEENANLQEYVEKETQEKKRLSRTNEELLWKLQTGDPTSPIKLSPTSPVYRGSSSGPSSPARVSTTPR", "note": "[A89V]", "effect of a mutation on the interaction": "with no effect"}]}]}
